According to publication PMC9257651:
Each block holds one substance with its values, some of them ahead of it.

Columns and labels:
[1] = molecular target: ClpP1 co-expressed with ClpP2 in E. coli (L. monocytogenes); test: SEC
[2] = molecular target: Full-length ClpP2 with a C-terminal Strep-tag II (tetradecamer, ClpP2_(14)) (L. monocytogenes); test: SEC + other: intact protein mass spectrometry
[3] = molecular target: ClpP2 co-expressed with ClpP1 in E. coli (L. monocytogenes); test: SEC
[4] = molecular target: C-terminally myc-tagged ClpP2 (ClpP2-2×myc) (L. monocytogenes (endogenous gene in L. monocytogenes EGD-e)); test: affinity purification with mass spectrometry

Substance: ClpP1, endogenous in L. monocytogenes (enzyme)
fold enrichment at 42 °C against 20 °C [4]: 6 fold

Substance: ClpP1 with a C-terminal Strep-tag II (heptamer, ClpP1_(7)) (enzyme)
percent ClpP1 in the tetradecamer peak (intact protein MS) [2]: 47 to 49%

Further lines, results first:

stoichiometry N [1]: 7
Substance: ClpP1 co-expressed with ClpP2 in E. coli (enzyme)

stoichiometry N [2]: 14
Substance: Full-length ClpP2 with a C-terminal Strep-tag II (tetradecamer, ClpP2_(14)) (enzyme)

stoichiometry N [3]: 14
Substance: ClpP2 co-expressed with ClpP1 in E. coli (enzyme)
